Results from article PMC5405867 (Nature structural & molecular biology, 2017).

What was measured:
[1] = target: T1, human USP18 (residues 16-372), tag removed (human, UniProt Q9UMW8 16-372); test: covalent adduct formation with an active-site probe
T1 sequence (looked up): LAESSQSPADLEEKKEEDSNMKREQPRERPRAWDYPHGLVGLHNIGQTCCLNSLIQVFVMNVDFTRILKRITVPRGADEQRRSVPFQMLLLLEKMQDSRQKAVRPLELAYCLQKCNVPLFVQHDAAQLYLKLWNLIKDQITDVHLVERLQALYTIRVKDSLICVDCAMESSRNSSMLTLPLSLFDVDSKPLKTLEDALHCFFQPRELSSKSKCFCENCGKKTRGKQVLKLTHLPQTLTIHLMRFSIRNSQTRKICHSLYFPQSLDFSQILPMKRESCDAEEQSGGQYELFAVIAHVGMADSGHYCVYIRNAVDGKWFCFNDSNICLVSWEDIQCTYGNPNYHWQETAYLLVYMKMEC

[2] = target: T2, murine USP18^IBB-2-USP7, His6-tagged (mouse, UniProt Q9WTV6 1-368, residues 256-263 (S-A-R-N-S-R-T-E) replaced by the corresponding residues …); test: cell-based or functional assay
T2 sequence (looked up): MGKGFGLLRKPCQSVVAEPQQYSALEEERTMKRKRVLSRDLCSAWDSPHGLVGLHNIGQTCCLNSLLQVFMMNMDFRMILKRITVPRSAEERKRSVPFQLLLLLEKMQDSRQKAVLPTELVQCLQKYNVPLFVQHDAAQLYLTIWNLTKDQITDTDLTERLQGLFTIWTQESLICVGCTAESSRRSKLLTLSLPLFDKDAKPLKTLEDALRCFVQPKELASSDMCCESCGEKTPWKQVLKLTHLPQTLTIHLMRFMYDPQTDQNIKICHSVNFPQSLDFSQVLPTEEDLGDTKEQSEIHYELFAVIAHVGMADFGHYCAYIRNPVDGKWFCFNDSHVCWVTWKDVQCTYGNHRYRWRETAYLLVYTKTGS

[3] = target: T3, murine USP18 catalytic core (residues 46-368), His6-tagged (mouse, UniProt Q9WTV6 46-368); test: SPR
T3 sequence (looked up): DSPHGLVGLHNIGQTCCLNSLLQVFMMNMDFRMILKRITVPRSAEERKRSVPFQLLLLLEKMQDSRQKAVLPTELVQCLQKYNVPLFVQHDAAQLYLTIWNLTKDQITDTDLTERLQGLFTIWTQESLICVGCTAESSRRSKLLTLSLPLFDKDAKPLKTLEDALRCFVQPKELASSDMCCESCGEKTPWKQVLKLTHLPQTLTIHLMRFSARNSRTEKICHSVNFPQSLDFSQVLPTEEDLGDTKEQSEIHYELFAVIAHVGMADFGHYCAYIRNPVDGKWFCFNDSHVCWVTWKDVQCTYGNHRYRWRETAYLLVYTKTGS

B1: mouse ISG15-PA (full-length ISG15 propargylamide probe, residues 1-154, C76S) (natural protein, UniProt Q64339 1-154, looked up)
chain: MAWDLKVKMLGGNDFLVSVTNSMTVSELKKQIAQKIGVPAFQQRLAHQTAVLQDGLTLSSLGLGPSSTVMLVVQNSSEPLSILVRNERGHSNIYEVFLTQTVDTLKKKVSQREQVHEDQFWLSFEGRPMEDKELLGEYGLKPQCTVIKHLRLRG
modifications: C-terminal propargylamide (PA)
[1]
  binding result: binds

B2: mouse ISG15 (residues 1-155, C76S) (natural protein, UniProt Q64339 1-155, looked up)
chain: MAWDLKVKMLGGNDFLVSVTNSMTVSELKKQIAQKIGVPAFQQRLAHQTAVLQDGLTLSSLGLGPSSTVMLVVQNSSEPLSILVRNERGHSNIYEVFLTQTVDTLKKKVSQREQVHEDQFWLSFEGRPMEDKELLGEYGLKPQCTVIKHLRLRGG
[2]
  catalytic activity towards ISG15-FP, percent of wild type: 65 % of wt activity
[3]
  Kd: 1490 ± 30 nM

B3: mouse ISG15-W121R (C76S) (natural protein, UniProt Q64339 1-155, looked up)
chain: MAWDLKVKMLGGNDFLVSVTNSMTVSELKKQIAQKIGVPAFQQRLAHQTAVLQDGLTLSSLGLGPSSTVMLVVQNSSEPLSILVRNERGHSNIYEVFLTQTVDTLKKKVSQREQVHEDQFRLSFEGRPMEDKELLGEYGLKPQCTVIKHLRLRGG
[3]
  stoichiometry N: 0.4 ISG15 per immobilized USP18
